# Source: PMC6053527 (Frontiers in Plant Science, 2018)
# T1: SyMDH (Synechocystis sp. PCC 6803, UniProt Q55383)
# T1 construct: gene mdh; full ORF in pGEX5X-1, N-terminal GST tag kept, E. coli expression, glutathione-Sepharose purification
# T1 sequence (Q55383 1-324): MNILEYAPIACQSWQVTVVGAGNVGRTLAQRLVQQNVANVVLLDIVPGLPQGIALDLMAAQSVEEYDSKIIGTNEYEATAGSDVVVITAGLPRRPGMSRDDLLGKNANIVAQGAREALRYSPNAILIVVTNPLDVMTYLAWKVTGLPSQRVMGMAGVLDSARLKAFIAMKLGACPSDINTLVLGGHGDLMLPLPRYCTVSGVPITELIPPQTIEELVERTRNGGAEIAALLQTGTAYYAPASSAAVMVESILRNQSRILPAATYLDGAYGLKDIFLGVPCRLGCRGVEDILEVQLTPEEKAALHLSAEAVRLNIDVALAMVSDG
# B1: SyMDH (Synechocystis sp. PCC 6803 substr. Kazusa) (protein)
# chain: MNILEYAPIACQSWQVTVVGAGNVGRTLAQRLVQQNVANVVLLDIVPGLPQGIALDLMAAQSVEEYDSKIIGTNEYEATAGSDVVVITAGLPRRPGMSRDDLLGKNANIVAQGAREALRYSPNAILIVVTNPLDVMTYLAWKVTGLPSQRVMGMAGVLDSARLKAFIAMKLGACPSDINTLVLGGHGDLMLPLPRYCTVSGVPITELIPPQTIEELVERTRNGGAEIAALLQTGTAYYAPASSAAVMVESILRNQSRILPAATYLDGAYGLKDIFLGVPCRLGCRGVEDILEVQLTPEEKAALHLSAEAVRLNIDVALAMVSDG
# notes: full ORF in pGEX5X-1, N-terminal GST tag kept, E. coli expression, glutathione-Sepharose purification
# Assays:
# [1] = target: T1, SyMDH; test: spectrophotometric assay at […] nm; fit to modified Michaelis-Menten equation; type: biochemical; conditions: substrate inhibition by NAD+; oxidative reaction, 4.0 mM malate, 100 mM potassium phosphate pH 8.0
# [2] = target: T1, SyMDH; test: spectrophotometric assay at […] nm with effector; type: biochemical; conditions: read-out: % activity at 1 mM
# [3] = substrate: NC(=O)C1=CN([C@@H]2O[C@H](COP(=O)(O)OP(=O)(O)OC[C@H]3O[C@@H](n4cnc5c(N)ncnc54)[C@H](O)[C@@H]3O)[C@@H](O)[C@H]2O)C=CC1; test: purified protein; type: biochemical, Synechocystis sp. PCC 6803; conditions: reductive reaction, 0.1 mM oxaloacetate, 100 mM potassium phosphate pH 6.5; pH 6.5
# [4] = substrate: NC(=O)c1ccc[n+]([C@@H]2O[C@H](COP(=O)(O)OP(=O)(O)OC[C@H]3O[C@@H](n4cnc5c(N)ncnc54)[C@H](O)[C@@H]3O)[C@@H](O)[C@H]2O)c1; test: purified protein; type: biochemical, Synechocystis sp. PCC 6803; conditions: oxidative reaction, 4.0 mM malate, 100 mM potassium phosphate pH 8.0; pH 8.0
# [5] = substrate: O=C(O)CC(=O)C(=O)O; test: purified protein; type: biochemical, Synechocystis sp. PCC 6803; conditions: reductive reaction, 0.1 mM NADH, 100 mM potassium phosphate pH 6.5; no added effector; pH 6.5
# [6] = substrate: O=C(O)C[C@H](O)C(=O)O; test: purified protein; conditions: oxidative reaction, 8.0 mM NAD+, 100 mM potassium phosphate pH 8.0
molecule,measurement,setting,value
NC(=O)c1ccc[n+]([C@@H]2O[C@H](COP(=O)(O)OP(=O)(O)OC[C@H]3O[C@@H](n4cnc5c(N)ncnc54)[C@H](O)[C@@H]3O)[C@@H](O)[C@H]2O)c1 [NAD^+],Ki,[1],14.5 mM
O=C(O)/C=C/C(=O)O [fumarate],activity at 1000 µM,[2],~170%
B1,Km,[3],30 µM
same,kcat,[3],0.97 s⁻¹
same,Km,[4],580 µM
same,kcat,[4],0.21 s⁻¹
same,Km,[5],12 µM
same,kcat,[5],0.71 s⁻¹
same,Km,[6],2600 µM
same,kcat,[6],0.43 s⁻¹
